Assay results reported in the DeepSol protein solubility set.

Assay: soluble on expression in E. coli; label from the status in PepcDB or PDB records
In the case of “GSHMDINNKARIHWACRRGMRELDISIMPFFEHEYDSLSDDEKRIFIRLLECDDPDLFNWLMNHGKPADAELEMMVRLIQTRNRERGPVAI”, the “soluble on expression in E. coli” value is reported as “soluble”.
With “GSHMIEPNVISVRLFKRKVGGLGFLVKERVSKPPVIISDLIRGGAAEQSGLIQAGDIILAVNDRPLVDLSYDSALEVLRGIASETHVVLILRGPEGFTTHLETTFTGDGTPKTIRVTQPLGPPTKAV” the “soluble on expression in E. coli” value was “soluble”.
For “GSHMKNSVSVDLPGEMKVLVSKEKNKDGKYDLIATVDKLELKGTSDKNNGSGVLEGVKADKSKVKLTISDDLGQTTLEVFKEDGKTLVSKKVTSKDKSSTEEKFNEKGELSEKKITRADKSSTEEKFNEKGELSEKKITRADKSSTEEKFNEKGELSEKKITRADKSSTEEKFNEKGELSEKKITRADKSSTEEKFNEKGELSEKKITRADKSSTEEKFNEKGEVSEKIITRADGTRLEYTGIKSDGSGKAKEVLKGYVLEGTLTAEKTTLVVKEGTVTLSKNISKSGEVSVELNDTDSSAATKKTAAWNSGTSTLTITVNSKKTKDLVFTKENTITVQQYDSNGTKLEGSAVEITKLDEIKNALK”, the “soluble on expression in E. coli” value was “soluble”.
With “GSHMPVVHVIDVESGNLQSLTNAIEHLGYEVQLVKSPKDFNISGTSRLILPGVGNYGHFVDNLFNRGFEKPIREYIESGKPIMGICVGLQALFAGSVESPKSTGLNYIDFKLSRFDDSEKPVPEIGWNSCIPSENLFFGLDPYKRYYFVHSFAAILNSEKKKNLENDGWKIAKAKYGSEEFIAAVNKNNIFATQFHPEKSGKAGLNVIENFLKQQSPPIPNYSAEEKELLMNDYSNYGLTRRIIACLDVRTNDQGDLVVTKGDQYDVREKSDGKGVRNLGKPVQLAQKYYQQGADEVTFLNITSFRDCPLKDTPMLEVLKQAAKTVFVPLTVGGGIKDIVDVDGTKIPALEVASLYFRSGADKVSIGTDAVYAAEKYYELGNRGDGTSPIETISKAYGAQAVVISVDPKRVYVNSQADTKNKVFETEYPGPNGEKYCWYQCTIKGGRESRDLGVWELTRACEALGAGEILLNCIDKDGSNSGYDLELIEHVKDAVKIPVIASSGAGVPEHFEEAFLKTRADACLGAGMFHRGEFTVNDVKEYLLEHGLKVRMDEE” the “soluble on expression in E. coli” value was “soluble”.
In the case of “GSHMRLSDYFPESSISVIHSAKDWQEAIDFSMVSLLDKNYISENYIQAIKDSTINNGPYYILAPGVAMPHARPECGALKTGMSLTLLEQGVYFPGNDEPIKLLIGLSAADADSHIGAIQALSELLCEEEILEQLLTASSEKQLADIISRG”, the “soluble on expression in E. coli” value is reported as “soluble”.
For “GSHMSKDATKEISAPTDAKERSKAIETAMSQIEKAFGKGSIMKLGAESKLDVQVVSTGSLSLDLALGVGGIPRGRITEIYGPESGGKTTLALAIVAQAQKAGGTCAFIDAEHALDPVYARALGVNTDELLVSQPDNGEQALEIMELLVRSGAIDVVVVDSVAALTPRAEIEGDMGDSLPGLQARLMSQALRKLTAILSKTGTAAIFINQVREKIGVMYGNPETTTGGRALKFYASVRLDVRKIGQPTKVGNDAVANTVKIKTVKNKVAAPFKEVELALVYGKGFDQLSDLVGLAADMDIIKKAGSFYSYGDERIGQGKEKTIAYIAERPEMEQEIRDRVMAAIRAGNAGEAPALAPAPAAPEAAEA”, the “soluble on expression in E. coli” value was “soluble”.
With “GSHMSVRIVDVREITKPISSPIRNAYIDFTKMTTSLVAVVTDVVREGKRVVGYGFNSNGRYGQGGLIRERFASRILEADPKKLLNEAGDNLDPDKVWAAMMINEKPGGHGERSVAVGTIDMAVWDAVAKIAGKPLFRLLAERHGVKANPRVFVYAAGGYYYPGKGLSMLRGEMRGYLDRGYNVVKMKIGGAPIEEDRMRIEAVLEEIGKDAQLAVDANGRFNLETGIAYAKMLRDYPLFWYEEVGDPLDYALQAALAEFYPGPMATGENLFSHQDARNLLRYGGMRPDRDWLQFDCALSYGLCEYQRTLEVLKTHGWSPSRCIPHGGHQMSLNIAAGLGLGGNESYPDLFQPYGGFPDGVRVENGHITMPDLPGIGFEGKSDLYKEMKALAE” the “soluble on expression in E. coli” value was “soluble”.
With “GSHMTIEQMVDRLLSYPERTKMQILAPIVSGKKGTHAKTLEDIRKQGYVRVRIDREMRELTGDIELEKNKKHSIDVVVDRIIIKDGIAARLADSLETALKLADGKVVVDVIGEGELLFS” the “soluble on expression in E. coli” value was “soluble”.
With “GSMIDKSAFVHPTAIVEEGASIGANAHIGPFCIVGPHVEIGEGTVLKSHVVVNGHTKIGRDNEIYQFASIGEVNQDLKYAGEPTRVEIGDRNRIRESVTIHRGTVQGGGLTKVGSDNLLMINAHIAHDCTVGNRCILANNATLAGHVSVDDFAIIGGMTAVHQFCIIGAHVMVGGCSGVAQDVPPYVIAQGNHATPFGVNIEGLKRRGFSREAITAIRNAYKLIYRSGKTLDEVKPEIAELAETYPEVKAFTDFFARSTRGLIR” the “soluble on expression in E. coli” value was “soluble”.
With “GSMPTTCGFPNCKFRSRYRGLEDNRHFYRIPKRPLILRQRWLTAIGRTEETVVSQLRICSAHFEGGEKKEGDIPVPDPTVDKQIKIELPPK” the “soluble on expression in E. coli” value was “soluble”.
With “GSPELGFSFDYAYQPIVNLHDQSIFAHEALVRGPNGEGAMSVLNQVTDQNRYRFDQKCRTTAIAGAAKLGMTERLSINFLPNAVYRPELCIRSTLEAAKQHDFPIERLIFETIESEHVDNNNHLSNILREYREFGFMTAIDDFGAGYSGLTLLADFQPDLIKLDMNLVRDIHRDRARQAIVRGVVTMCKDLGIKLIAEGIEHIEERDFLADCGISLMQGYLFAKP” the “soluble on expression in E. coli” value was “not soluble”.
In the case of “GSPGIPGSTSELEEDFAKILMLKEERIKELEKRLSEKEEEIQELKRKLHKCQSVLPVPSTHIGPRTT”, the “soluble on expression in E. coli” value is reported as “soluble”.
For “GSPGISGGGGGILGLMAEQEPTAEQLAQIAAENEEDEHSVNYKPPAQKSIQEIQELDKDDESLRKYKEALLGRVAVSADPNVPNVVVTRLTLVCSTAPGPLELDLTGDLESFKKQSFVLKEGVEYRIKISFRVNREIVSGMKYIQHTYRKGVKIDKTDYMVGSYGPRAEEYEFLTPMEEAPKGMLARGSYNIKSRFTDDDRTDHLSWEWNLTIKKEWKD”, the “soluble on expression in E. coli” value was “soluble”.
For “GSQNNECKMVDLRGAKVASFTVEGCELICLPQAFDLFLKHLVGGLHTVYTKLKRLEITPVVCNVEQVRILRGLGAIQPGVNRCKLISRKDFETLYNDCTNA”, the “soluble on expression in E. coli” value was “soluble”.
With “GSSGSSGAAFAKILDPAYQVDKGGRVRFVVELADPKLEVKWYKNGQEIRPSTKYIFEHKGCQRILFINNCQMTDDSEYYVTAGDEKCSTELFVRSGPSSG” the “soluble on expression in E. coli” value was “soluble”.
With “GSSHHHHHHSSGLVPRGSHMSVQNVVLFDTQPLTLMLGGKLSYINVAYQTYGTLNDEKNNAVLICHALTGDAEPYFDDGRDGWWQNFMGAGLALDTDRYFFISSNVLGGCKGTTGPSSINPQTGKPYGSQFPNIVVQDIVKVQKALLEHLGISHLKAIIGGSFGGMQANQWAIDYPDFMDNIVNLCSSIYFSAEAIGFNHVMRQAVINDPNFNGGDYYEGTPPDQGLSIARMLGMLTYRTDLQLAKAFGRATKSDGSFWGDYFQVESYLSYQGKKFLERFDANSYLHLLRALDMYDPSLGYENVKEALSRIKARYTLVSVTTDQLFKPIDLYKSKQLLEQSGVDLHFYEFPSDYGHDAFLVDYDQFEKRIRDGLAGN” the “soluble on expression in E. coli” value was “soluble”.
For “GSVYNTKKVGKRLNIQLKKGTEGLGFSITSRDVTIGGSAPIYVKNILPRGAAIQDGRLKAGDRLIEVNGVDLAGKSQEEVVSLLRSTKMEGTVSLLVFRQEEAFHPREMNA”, the “soluble on expression in E. coli” value was “soluble”.
In the case of “GTPLSSDEKIRVLVWNIFKQQRAEWQSVLKNFGKDAHLVLLQEAQTTPELVRFATSNYLAADQVPALVLPQHPSGVMTLASAHPIYCCPLREREPILRLPKSALVTVYPLPDARLLMVVNIHAVNFSLGVDVYSKQLLPIGDQIAHHSGPVIMAGDFNAWSRPRMNALYRFAREMSLREVRFSDDQRRRAFGRPLDFVFYRGLSVHDASVLVTRASDHNPLLVEFSPGKP”, the “soluble on expression in E. coli” value is reported as “not soluble”.
In the case of “GTQSTHESLKPQRVQFQSRNFHNILQWQPGRALTGNSSVYFVQYKIYGQRQWKNKEDCWGTQELSCDLTSETSDIQEPYYGRVRAASAGSYSEWSMTPRFTPWWETKIDPPVMNITQVNGSLLVILHAPNLPYRYQKEKNVSIEDYYELLYRVFIINNSLEKEQKVYEGAHRAVEIEALTPHSSYCVVAEIYQPMLDRRSQRSEERCVEIP”, the “soluble on expression in E. coli” value is reported as “soluble”.
With “GTVSATSPNKCKRPMNAFMLFAKKYRVEYTQMYPGKDNRAISVILGDRWKKMKNEERRMYTLEAKALAEEQKRLNPDCWK” the “soluble on expression in E. coli” value was “soluble”.
